The values below come from patent publication US20140105889A1 (published 2014).

The labels stand for the following.
B1: GpH7-B3/GpL16-k0 with A327T introduced into GpH7-B3 (antibody, human IgG1)
heavy: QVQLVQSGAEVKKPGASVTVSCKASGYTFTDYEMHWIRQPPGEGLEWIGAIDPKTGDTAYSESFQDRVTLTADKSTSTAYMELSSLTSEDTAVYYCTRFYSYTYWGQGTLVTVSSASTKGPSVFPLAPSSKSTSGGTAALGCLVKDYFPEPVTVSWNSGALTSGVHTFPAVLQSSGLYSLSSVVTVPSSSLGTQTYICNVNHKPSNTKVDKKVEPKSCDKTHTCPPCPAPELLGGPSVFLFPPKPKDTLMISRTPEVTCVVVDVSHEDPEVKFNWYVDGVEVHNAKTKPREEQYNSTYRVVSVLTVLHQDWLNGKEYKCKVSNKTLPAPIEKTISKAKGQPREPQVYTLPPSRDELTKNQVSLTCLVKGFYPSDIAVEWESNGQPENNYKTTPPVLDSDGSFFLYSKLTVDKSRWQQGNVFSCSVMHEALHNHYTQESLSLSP
light: DIVMTQSPLSLPVTPGEPASISCQASESLVHSNRNTYLHWYLQKPGQSPQLLIYKVSNRFSGVPDRFSGSGSGTDFTLKISRVEAEDVGVYYCSQNTHVPPTFGQGTKVEIE
notes: Anti-glypican-3 human IgG1; constant region B3 (G1d with K439E); Fc variant; also called B3 variant; copies: 2 + 2
B2: GpH7-B3/GpL16-k0 with N325W introduced into GpH7-B3 (antibody, human IgG1)
heavy: not shown
light: DIVMTQSPLSLPVTPGEPASISCQASESLVHSNRNTYLHWYLQKPGQSPQLLIYKVSNRFSGVPDRFSGSGSGTDFTLKISRVEAEDVGVYYCSQNTHVPPTFGQGTKVEIE
notes: as for B1
B3: GpH7-B3/GpL16-k0 with N325A introduced into GpH7-B3 (antibody, human IgG1)
heavy: not shown
light: DIVMTQSPLSLPVTPGEPASISCQASESLVHSNRNTYLHWYLQKPGQSPQLLIYKVSNRFSGVPDRFSGSGSGTDFTLKISRVEAEDVGVYYCSQNTHVPPTFGQGTKVEIE
notes: as for B1
B4: GpH7-B3/GpL16-k0 with P329H introduced into GpH7-B3 (antibody, human IgG1)
heavy: not shown
light: DIVMTQSPLSLPVTPGEPASISCQASESLVHSNRNTYLHWYLQKPGQSPQLLIYKVSNRFSGVPDRFSGSGSGTDFTLKISRVEAEDVGVYYCSQNTHVPPTFGQGTKVEIE
notes: as for B1
B5: GpH7-B3/GpL16-k0 with L328N introduced into GpH7-B3 (antibody, human IgG1)
heavy: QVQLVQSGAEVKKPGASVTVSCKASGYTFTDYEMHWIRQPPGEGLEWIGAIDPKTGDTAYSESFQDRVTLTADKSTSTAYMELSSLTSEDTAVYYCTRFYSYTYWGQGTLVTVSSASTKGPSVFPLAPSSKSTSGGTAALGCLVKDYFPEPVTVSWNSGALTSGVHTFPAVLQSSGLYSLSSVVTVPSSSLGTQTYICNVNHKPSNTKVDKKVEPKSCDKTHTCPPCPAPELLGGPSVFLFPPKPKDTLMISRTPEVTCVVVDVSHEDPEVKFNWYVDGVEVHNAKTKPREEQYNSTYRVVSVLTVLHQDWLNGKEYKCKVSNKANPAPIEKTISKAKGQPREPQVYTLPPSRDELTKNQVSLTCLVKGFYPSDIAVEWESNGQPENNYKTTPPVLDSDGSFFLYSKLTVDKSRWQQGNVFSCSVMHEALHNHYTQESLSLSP
light: DIVMTQSPLSLPVTPGEPASISCQASESLVHSNRNTYLHWYLQKPGQSPQLLIYKVSNRFSGVPDRFSGSGSGTDFTLKISRVEAEDVGVYYCSQNTHVPPTFGQGTKVEIE
notes: as for B1
B6: GpH7-B3/GpL16-k0 with N325K introduced into GpH7-B3 (antibody, human IgG1)
heavy: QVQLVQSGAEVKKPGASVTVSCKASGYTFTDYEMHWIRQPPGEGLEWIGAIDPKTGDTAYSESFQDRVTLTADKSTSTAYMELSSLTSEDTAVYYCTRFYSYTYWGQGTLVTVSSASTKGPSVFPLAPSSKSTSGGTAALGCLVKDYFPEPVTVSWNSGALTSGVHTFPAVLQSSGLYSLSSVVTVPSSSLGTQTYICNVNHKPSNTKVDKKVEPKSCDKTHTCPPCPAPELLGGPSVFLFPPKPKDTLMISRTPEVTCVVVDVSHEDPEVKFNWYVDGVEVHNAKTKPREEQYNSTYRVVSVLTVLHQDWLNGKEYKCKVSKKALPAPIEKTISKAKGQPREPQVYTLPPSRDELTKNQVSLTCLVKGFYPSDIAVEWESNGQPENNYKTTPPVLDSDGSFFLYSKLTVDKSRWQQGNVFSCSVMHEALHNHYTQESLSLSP
light: DIVMTQSPLSLPVTPGEPASISCQASESLVHSNRNTYLHWYLQKPGQSPQLLIYKVSNRFSGVPDRFSGSGSGTDFTLKISRVEAEDVGVYYCSQNTHVPPTFGQGTKVEIE
notes: as for B1
B7: GpH7-B3/GpL16-k0 with A327H introduced into GpH7-B3 (antibody, human IgG1)
heavy: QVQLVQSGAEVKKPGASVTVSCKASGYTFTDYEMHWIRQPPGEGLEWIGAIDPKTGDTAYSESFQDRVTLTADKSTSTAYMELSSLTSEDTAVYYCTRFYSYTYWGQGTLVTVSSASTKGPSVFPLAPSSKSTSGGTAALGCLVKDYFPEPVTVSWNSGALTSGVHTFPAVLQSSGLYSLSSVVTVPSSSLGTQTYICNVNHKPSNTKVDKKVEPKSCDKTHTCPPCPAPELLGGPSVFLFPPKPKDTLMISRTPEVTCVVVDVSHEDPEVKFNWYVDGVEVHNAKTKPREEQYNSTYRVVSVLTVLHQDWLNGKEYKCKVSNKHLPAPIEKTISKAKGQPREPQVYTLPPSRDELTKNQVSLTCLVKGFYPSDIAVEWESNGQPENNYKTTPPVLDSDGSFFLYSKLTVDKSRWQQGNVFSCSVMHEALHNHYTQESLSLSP
light: DIVMTQSPLSLPVTPGEPASISCQASESLVHSNRNTYLHWYLQKPGQSPQLLIYKVSNRFSGVPDRFSGSGSGTDFTLKISRVEAEDVGVYYCSQNTHVPPTFGQGTKVEIE
notes: as for B1
B8: GpH7-B3/GpL16-k0 with A327P introduced into GpH7-B3 (antibody, human IgG1)
heavy: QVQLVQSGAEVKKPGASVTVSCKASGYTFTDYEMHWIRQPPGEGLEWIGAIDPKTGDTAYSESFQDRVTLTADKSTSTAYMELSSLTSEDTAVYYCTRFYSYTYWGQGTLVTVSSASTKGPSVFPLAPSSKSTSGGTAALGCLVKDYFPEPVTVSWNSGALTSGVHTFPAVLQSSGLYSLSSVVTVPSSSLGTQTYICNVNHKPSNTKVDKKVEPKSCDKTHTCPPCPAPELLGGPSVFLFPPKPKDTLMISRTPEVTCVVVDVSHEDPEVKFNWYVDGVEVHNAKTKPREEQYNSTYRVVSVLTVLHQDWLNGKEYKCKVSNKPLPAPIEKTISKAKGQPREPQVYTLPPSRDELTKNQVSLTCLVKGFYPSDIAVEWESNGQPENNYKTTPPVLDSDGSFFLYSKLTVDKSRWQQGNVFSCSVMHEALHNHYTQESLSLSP
light: DIVMTQSPLSLPVTPGEPASISCQASESLVHSNRNTYLHWYLQKPGQSPQLLIYKVSNRFSGVPDRFSGSGSGTDFTLKISRVEAEDVGVYYCSQNTHVPPTFGQGTKVEIE
notes: as for B1
B9: GpH7-B3/GpL16-k0 with L328P introduced into GpH7-B3 (antibody, human IgG1)
heavy: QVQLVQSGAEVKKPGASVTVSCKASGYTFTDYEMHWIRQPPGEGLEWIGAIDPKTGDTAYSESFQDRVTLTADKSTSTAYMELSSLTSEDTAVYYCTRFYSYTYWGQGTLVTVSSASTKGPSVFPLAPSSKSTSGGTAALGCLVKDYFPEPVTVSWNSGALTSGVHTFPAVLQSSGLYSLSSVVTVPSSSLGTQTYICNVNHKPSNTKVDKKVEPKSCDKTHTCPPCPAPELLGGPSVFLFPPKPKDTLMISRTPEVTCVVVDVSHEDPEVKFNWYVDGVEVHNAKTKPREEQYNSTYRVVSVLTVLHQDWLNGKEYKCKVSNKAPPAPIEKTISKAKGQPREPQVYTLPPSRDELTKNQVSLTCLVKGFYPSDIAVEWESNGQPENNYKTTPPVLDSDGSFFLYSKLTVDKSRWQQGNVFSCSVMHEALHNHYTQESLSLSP
light: DIVMTQSPLSLPVTPGEPASISCQASESLVHSNRNTYLHWYLQKPGQSPQLLIYKVSNRFSGVPDRFSGSGSGTDFTLKISRVEAEDVGVYYCSQNTHVPPTFGQGTKVEIE
notes: as for B1
B10: GpH7-B3/GpL16-k0 with A327L introduced into GpH7-B3 (antibody, human IgG1)
heavy: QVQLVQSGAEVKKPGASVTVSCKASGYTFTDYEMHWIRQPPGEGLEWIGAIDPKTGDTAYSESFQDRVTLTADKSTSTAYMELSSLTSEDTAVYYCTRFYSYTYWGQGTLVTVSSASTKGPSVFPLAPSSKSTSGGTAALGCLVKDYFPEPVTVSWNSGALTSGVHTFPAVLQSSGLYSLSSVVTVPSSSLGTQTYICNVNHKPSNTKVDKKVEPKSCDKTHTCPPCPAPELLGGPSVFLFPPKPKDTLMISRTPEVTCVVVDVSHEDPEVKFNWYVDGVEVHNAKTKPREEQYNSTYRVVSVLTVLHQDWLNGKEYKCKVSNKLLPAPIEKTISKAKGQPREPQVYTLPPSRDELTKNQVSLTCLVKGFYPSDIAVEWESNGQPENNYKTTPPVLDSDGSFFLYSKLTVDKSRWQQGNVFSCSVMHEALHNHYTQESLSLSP
light: DIVMTQSPLSLPVTPGEPASISCQASESLVHSNRNTYLHWYLQKPGQSPQLLIYKVSNRFSGVPDRFSGSGSGTDFTLKISRVEAEDVGVYYCSQNTHVPPTFGQGTKVEIE
notes: as for B1
B11: GpH7-B3/GpL16-k0 with N325V introduced into GpH7-B3 (antibody, human IgG1)
heavy: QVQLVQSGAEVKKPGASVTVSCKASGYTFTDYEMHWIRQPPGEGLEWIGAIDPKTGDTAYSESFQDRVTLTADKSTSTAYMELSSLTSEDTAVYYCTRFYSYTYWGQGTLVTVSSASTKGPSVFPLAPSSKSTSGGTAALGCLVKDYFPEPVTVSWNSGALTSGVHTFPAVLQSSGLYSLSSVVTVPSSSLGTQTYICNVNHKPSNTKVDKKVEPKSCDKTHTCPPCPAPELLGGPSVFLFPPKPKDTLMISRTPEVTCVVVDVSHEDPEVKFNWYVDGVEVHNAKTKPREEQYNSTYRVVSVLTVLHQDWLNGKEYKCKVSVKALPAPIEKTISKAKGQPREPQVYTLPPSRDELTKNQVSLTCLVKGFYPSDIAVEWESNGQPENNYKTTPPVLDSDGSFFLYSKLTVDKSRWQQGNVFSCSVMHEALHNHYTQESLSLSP
light: DIVMTQSPLSLPVTPGEPASISCQASESLVHSNRNTYLHWYLQKPGQSPQLLIYKVSNRFSGVPDRFSGSGSGTDFTLKISRVEAEDVGVYYCSQNTHVPPTFGQGTKVEIE
notes: as for B1
B12: GpH7-B3/GpL16-k0 with A327F introduced into GpH7-B3 (antibody, human IgG1)
heavy: not shown
light: DIVMTQSPLSLPVTPGEPASISCQASESLVHSNRNTYLHWYLQKPGQSPQLLIYKVSNRFSGVPDRFSGSGSGTDFTLKISRVEAEDVGVYYCSQNTHVPPTFGQGTKVEIE
notes: as for B1
B13: GpH7-B3/GpL16-k0 with L328R introduced into GpH7-B3 (antibody, human IgG1)
heavy: not shown
light: DIVMTQSPLSLPVTPGEPASISCQASESLVHSNRNTYLHWYLQKPGQSPQLLIYKVSNRFSGVPDRFSGSGSGTDFTLKISRVEAEDVGVYYCSQNTHVPPTFGQGTKVEIE
notes: as for B1
B14: GpH7-B3/GpL16-k0 with N325R introduced into GpH7-B3 (antibody, human IgG1)
heavy: not shown
light: DIVMTQSPLSLPVTPGEPASISCQASESLVHSNRNTYLHWYLQKPGQSPQLLIYKVSNRFSGVPDRFSGSGSGTDFTLKISRVEAEDVGVYYCSQNTHVPPTFGQGTKVEIE
notes: as for B1
B15: GpH7-B3/GpL16-k0 with A327Y introduced into GpH7-B3 (antibody, human IgG1)
heavy: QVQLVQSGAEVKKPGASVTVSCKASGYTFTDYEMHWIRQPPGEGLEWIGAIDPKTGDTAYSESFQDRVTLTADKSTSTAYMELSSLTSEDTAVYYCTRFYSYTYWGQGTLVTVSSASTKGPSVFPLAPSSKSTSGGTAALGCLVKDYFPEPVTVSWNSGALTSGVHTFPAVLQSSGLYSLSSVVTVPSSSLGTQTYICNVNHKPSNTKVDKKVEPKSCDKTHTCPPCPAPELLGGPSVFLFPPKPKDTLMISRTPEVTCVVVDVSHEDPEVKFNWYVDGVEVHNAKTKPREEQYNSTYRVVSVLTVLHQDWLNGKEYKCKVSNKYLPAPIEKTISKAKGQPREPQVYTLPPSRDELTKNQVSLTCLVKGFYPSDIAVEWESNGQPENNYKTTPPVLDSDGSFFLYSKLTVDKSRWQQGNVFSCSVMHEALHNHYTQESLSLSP
light: DIVMTQSPLSLPVTPGEPASISCQASESLVHSNRNTYLHWYLQKPGQSPQLLIYKVSNRFSGVPDRFSGSGSGTDFTLKISRVEAEDVGVYYCSQNTHVPPTFGQGTKVEIE
notes: as for B1
B16: GpH7-B3/GpL16-k0 with N325I introduced into GpH7-B3 (antibody, human IgG1)
heavy: not shown
light: DIVMTQSPLSLPVTPGEPASISCQASESLVHSNRNTYLHWYLQKPGQSPQLLIYKVSNRFSGVPDRFSGSGSGTDFTLKISRVEAEDVGVYYCSQNTHVPPTFGQGTKVEIE
notes: as for B1
B17: GpH7-B3/GpL16-k0 with N325Y introduced into GpH7-B3 (antibody, human IgG1)
heavy: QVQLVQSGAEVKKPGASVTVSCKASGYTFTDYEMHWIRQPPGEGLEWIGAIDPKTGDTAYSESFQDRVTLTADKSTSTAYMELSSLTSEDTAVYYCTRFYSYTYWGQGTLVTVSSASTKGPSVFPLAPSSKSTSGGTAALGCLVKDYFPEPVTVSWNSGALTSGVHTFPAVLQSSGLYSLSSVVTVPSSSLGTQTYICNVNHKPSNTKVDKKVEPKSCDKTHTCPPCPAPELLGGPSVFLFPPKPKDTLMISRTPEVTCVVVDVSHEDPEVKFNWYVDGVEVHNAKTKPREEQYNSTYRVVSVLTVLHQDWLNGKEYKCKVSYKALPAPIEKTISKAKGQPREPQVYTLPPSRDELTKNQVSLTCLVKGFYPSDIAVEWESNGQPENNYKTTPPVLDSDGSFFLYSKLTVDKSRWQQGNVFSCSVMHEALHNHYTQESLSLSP
light: DIVMTQSPLSLPVTPGEPASISCQASESLVHSNRNTYLHWYLQKPGQSPQLLIYKVSNRFSGVPDRFSGSGSGTDFTLKISRVEAEDVGVYYCSQNTHVPPTFGQGTKVEIE
notes: as for B1

T1 sequence (P08637 other isoform, or with tags, fused parts or gaps limits assumed): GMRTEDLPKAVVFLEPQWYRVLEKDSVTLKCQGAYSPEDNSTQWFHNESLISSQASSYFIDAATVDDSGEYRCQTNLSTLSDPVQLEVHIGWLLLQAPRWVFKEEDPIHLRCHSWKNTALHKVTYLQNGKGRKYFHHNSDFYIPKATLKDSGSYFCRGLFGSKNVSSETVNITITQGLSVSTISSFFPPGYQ

The assay concerns the target T1, human FcγRIIIa(F) (human, UniProt P08637 17-208, limits assumed).
T1 construct: also called FcgRIIIaF; FcγRIIIa allotype F158
Briefly: SPR (Biacore), captured antibody, FcγR analyte; bound amount relative to GpH7-B3/GpL16-k0 x100.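 Also: receptor response divided by the antibody amount captured on the chip before comparison with the reference antibody, measured at 25 °C in HBS-EP+ running buffer.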
Description: Interaction between each modified antibody and Fcγ receptor prepared in the manner described above was analyzed using the Biacore T100 (GE Healthcare), Biacore T200 (GE Healthcare), Biacore A100 or Biacore 4000. HBS-EP+ (GE Healthcare) was used for the running buffer, and measurements were carried out at 25° C. The chips used were chips in which antigen peptides, Protein A (Thermo Scientific), Protein A/G (Thermo Scientific) or Protein L (ACTIGEN or BioVision) were immobilized on the Series S Sensor Chip CM5 (GE Healthcare) or Series S Sensor Chip CM4 (GE Healthcare) by amine coupling, or chips in which preliminarily biotinylated antigen peptides were allowed to interact and then immobilized on the Series S Sensor Chip SA (certified) (GE Healthcare). The target antibodies were captured on these sensor chips, Fcγ receptor diluted with the running buffer was allowed to interact, followed by measurement of the amount of bound antibody. The amounts bound were compared between antibodies. However, since the amount of Fcγ receptor bound depends on the amount of captured antibody, the values used for comparison were first corrected by dividing the amount of Fcγ receptor bound by the captured amount of each antibody. Through reaction with 10 mM glycine-HCl at pH 1.5, the sensor chips were regenerated by washing off antibody captured on the sensor chips and used repeatedly.
Binding strength was evaluated according to the following method based on the results of analyzing the interaction with each FcγR. […] That value was then further multiplied by 100, and the resulting value was used as an indicator of relative binding activity to each FcγR.
With B1, the relative binding activity was 10 % of GpH7-B3/GpL16-k0. Consider B2, for which the relative binding activity was -2 % of GpH7-B3/GpL16-k0. The result for B3 reads 6 % of GpH7-B3/GpL16-k0; that for B4, -1 % of GpH7-B3/GpL16-k0; that for B5, 22 % of GpH7-B3/GpL16-k0. In the case of B6 it was -2 % of GpH7-B3/GpL16-k0; in that of B7, 14 % of GpH7-B3/GpL16-k0; in that of B8, 20 % of GpH7-B3/GpL16-k0.

In the case of B9, the relative binding activity is 3 % of GpH7-B3/GpL16-k0.

For the molecule B10, the relative binding activity was 13 % of GpH7-B3/GpL16-k0. In the case of B11, the relative binding activity is 2 % of GpH7-B3/GpL16-k0. For the molecule B12, the relative binding activity was 16 % of GpH7-B3/GpL16-k0.

With B13, the relative binding activity is -1 % of GpH7-B3/GpL16-k0. In the case of B14 it was -1 % of GpH7-B3/GpL16-k0. In the case of B15, the relative binding activity is 13 % of GpH7-B3/GpL16-k0. The result for B16 reads 1 % of GpH7-B3/GpL16-k0. The result for B17 reads 5 % of GpH7-B3/GpL16-k0.
